What was measured:
[1] = substrate: CC=O; test: AdhA alcohol dehydrogenase enzyme assay, Michaelis-Menten kinetics in cell extracts of P. furiosus strain A; format: biochemical, Thermoanaerobacter strain X514; conditions: other: recombinant AdhA in cell extracts of P. furiosus strain A, 50 mM Mops pH 7.5, 2 mM DTT, 70° C., nonlinear regression
Procedure: (§1) The protein content was determined using a standard Bradford assay. Whole-cell extracts and S100 were kept anoxic at all times, and enzyme activity assays were performed under reducing conditions in anoxic 50 mM Mops (pH 7.5) plus 2 mM DTT at 70° C. […] Vmax and Km values of AdhA were calculated using nonlinear regression (nls function) in R (R Development Core Team, 2013, Available at www.R-project.org/).

[2] = substrate: CCCC=O; test: as above; format: biochemical, Thermoanaerobacter strain X514; conditions: other: recombinant AdhA in cell extracts of P. furiosus strain A, 50 mM Mops pH 7.5, 2 mM DTT, 70° C., nonlinear regression
Procedure: as §1

B1: T. X514 AdhA (Thermoanaerobacter ethanolicus) (protein)
chain: MWETKINPNKVFELRCKNTTYFGIGSIKKIKDILEVLKNKGINNVILVTGKGSYKASGAWDVVKPALETLGFKYSLYDKVGPNPTVDMIDEAAKIGRETGAKAVIGIGGGSPIDTAKSVAVLLEYTDKNARELYEQKFIPEKAAPIIAINLTHGTGTEVDRFAVATIPEKNYKPAIAYDCLYPMYAIDDPSLMTKLDKKQTIAVTIDALNHVTEAATTLVASPYSVLMAKETVRLIVRYLPAAVNDPENLVARYYLLYASALAGISFDNGLLHLTHALEHPLSAVKPEIAHGLGLGAILPAVVKAIYPSVAEVLAEVYSPIVPGLKGLPAEAEYVAKKVEEWLFKVGCTQKLSDFGFTKEDIPTLVRLAKTTPSLDGLLSNAPVEATEAVIAKIYEESF
[1]
  Km: 63 µM
[2]
  Km: 166 µM

Source: patent US20150275238A1, “GENETICALLY ENGINEERED MICROBES AND METHODS FOR CONVERTING ORGANIC ACIDS TO ALCOHOLS” (UNIVERSITY OF GEORGIA RESEARCH FOUNDATION, INC., priority 2014, published 2015)
